Measured values from US10335470B2, “Immunogenic compositions comprising progastrin and uses thereof” (Board of Regents, The University of Texas System, priority 2006, dated 2019).

Assays:
[1] = molecular target: T1, specific binding sites for rhPG (Annexin II) (Rattus norvegicus, UniProt Q07936); experiment: Displacement of 125I-rhPG binding to AR42J and IEC cells; conditions: 1.0 nM 125I-rhPG
T1 construct: endogenous in cells; host or cells: AR42J cells; IEC cells
Description: FIGS. 8A-8C show binding of ^125I-rhPG and ^125I-BH-CCK8 to a pancreatic cancer cell line, AR42J and intestinal epithelial cells (IEC). […] The relative binding affinity of the gastrin like peptides for the specific binding sites for rhPG (FIGS. 8A and B) (Annexin II) and CCK8 (FIG. 8C) to CCK2R was calculated. Data in each point represents the mean values of triplicate measurements from a single experiment and is representative of 2 similar experiments. The intra-experimental variation for each data point was <5-10%. The nM concentration of each peptide used is presented in a log-scale on the x-axis; the excess unlabeled peptide used for displacing the binding of the radio labeled ligand is presented in parentheses. The % loss in the relative binding of the radio labeled ligand in the presence of the increasing concentrations of the indicated non-labeled peptide is presented on the y-axis. IEC cells lack CCK2R binding sites and therefore binding with radio-labeled CCK8 was not examined with these cells.
The full-length recombinant human PG1-80 (rhPG) was generated in an E. coli expression system and purified and confirmed as described previously (Singh et al, 2003). rhPG was radio labeled with Na ^125I (Amersham, Chicago, Ill.), and the intact ^125I-rhPG purified by HPLC as described previously (Singh et al, 2003). For these experiments, AR42J cells were expanded in vitro in […] and grown to subconfluence in the growth medium containing 10% FCS. […] The binding data was analyzed by a Scatchard plot as described previously (Singh et al, 1995). […]
In order to define the RBA of various peptides for the PG binding sites on the cells, cells in suspension were incubated with 1.0 nM ^125I-rhPG in the presence or absence of increasing concentrations (0.1 nM-10.0 μM) of either the homologous or heterologous peptide. Non-specific binding was determined in the presence of 1000× excess of the non-labeled homologous peptide. […] Cell pellets were counted for ^125I in a gamma counter with ˜70% efficiency for ^125I. […]

thioredoxin = conditions: all mouse groups (WT and PS21)
thioredoxin, sequence (P0AA25 whole entry): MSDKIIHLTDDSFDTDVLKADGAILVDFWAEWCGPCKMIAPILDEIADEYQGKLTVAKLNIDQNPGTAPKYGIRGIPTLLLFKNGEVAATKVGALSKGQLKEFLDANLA
Description: Briefly, transgenic mice expressing human progastrin (PS21) and wild type mice were divided into 3 groups and immunized with (a) recombinant thioredoxin, (b) a recombinant fusion protein where human progastrin was fused with thioredoxin and recombinant progastrin, all proteins were expressed in E. coli and purified from cell extract. Each protein was emulsified using CFA/IFA (Sigma) as an adjuvant. The mice that received vaccine emulsified using CFA on day 1 followed by two subsequent immunization using IFA on day 21 and day 42. All injections were administered subcutaneously. Mice were bled and serum prepared to estimate the titers once a week for 3 weeks, 15 days after the final immunization.
The antibody tires in serum were determined by solid phase ELISA using limiting dilution method. Briefly, 96 wells PVC ELISA plates (Falcon) were coated with 3 different recombinant protein expressed in E. coli that were used to vaccinate mice i.e. recombinant thioredoxin, Thioredoxin-PG fusion protein and recombinant PG. Recombinant proteins were dissolved in carbonate buffer pH 9.0 and coated at a concentration of 50 μg/50 μl/well. The plates were incubated overnight at 4° C. Following day the plates were flipped and the well were blocked with 100 μl 2% non fat dry milk (NFDM) and plated were incubated at 37° C. for 3-4 hours. […] The ELISA plated were them read in plate reader at 490 nm.

[2] = system: aberrant crypt foci in PS21 (Fabp-PG) mice; experiment: Aberrant crypt foci in response to AOM in immunized PS21 Fabp-PG transgenic mice; assay type: in vivo, mouse; conditions: immunized PS21 mice vs wild type mice
Description: Aberrant crypt forci (ACFs) are pre-neoplastic markers of colon carcinogenesis and represent dysplastic growth of colonic crypts, which is the earliest stage of pre-cancerous changes in the colonic mucosa as described in detail previously (Singh et al, 2000b). […] These mice were immunized with either thioredoxin, or the progastrin peptide alone or the fusion protein (FP) which contained thioredoxin and progastrin.
All injections were administered subcutaneously. […] The ACFs were then counted.

progastrin = experiment: Anti-progastrin antibody titers in immunized mice (solid phase ELISA); assay type: in vivo, mouse; conditions: for anti-PG-antibody titers: PS21 transgenic and WT mice, CFA/IFA, s.c. day 1, 21, 42
CCK2R = molecular target: T2, CCK2R (Rattus norvegicus, UniProt P30553); experiment: Displacement of 125I-BH-CCK8 binding to AR42J cells
T2 construct: endogenous in cells; host or cells: AR42J cells
T2 sequence (P30553 1-452): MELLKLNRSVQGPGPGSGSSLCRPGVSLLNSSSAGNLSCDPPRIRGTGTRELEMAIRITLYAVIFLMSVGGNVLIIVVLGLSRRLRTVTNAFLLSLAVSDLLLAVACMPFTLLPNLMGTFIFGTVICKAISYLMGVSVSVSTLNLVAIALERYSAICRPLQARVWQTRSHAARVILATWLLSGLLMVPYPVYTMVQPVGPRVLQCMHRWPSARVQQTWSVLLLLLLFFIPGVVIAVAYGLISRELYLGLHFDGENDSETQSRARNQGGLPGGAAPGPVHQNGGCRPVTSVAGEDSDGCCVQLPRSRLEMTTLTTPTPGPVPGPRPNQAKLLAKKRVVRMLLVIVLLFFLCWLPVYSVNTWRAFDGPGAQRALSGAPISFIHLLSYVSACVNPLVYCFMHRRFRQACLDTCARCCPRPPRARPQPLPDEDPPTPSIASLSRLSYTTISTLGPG
Description: Cells were incubated with the indicated radio labeled ligand in the presence or absence of increasing concentrations of either CCK8, G17 or rhPG. The relative binding affinity of the gastrin like peptides for the specific binding sites for rhPG (FIGS. 8A and B) (Annexin II) and CCK8 (FIG. 8C) to CCK2R was calculated.
In a few experiments, ^125I-Bolton Hunter-CCK-8 (Amersham Biosciences, Piscataway, N.J.) was used as the radiolabeled ligand and the RBA of gastrin like peptides for displacing the binding of ^125I-BH-CCK8 to AR42J cells examined by our published methods (Singh et al, 1995).

[3] = system: intestinal epithelial cells (IEC), colon cancer cells and pancreatic cancer cells; conditions: cited from earlier work
[4] = system: mouse colon cancer (CA) cells; experiment: Growth of mouse colon cancer (CA) cells in immunized Balb/c mice; assay type: in vivo; conditions: CA cells inoculated at week 10, sacrificed week 14, control adjuvant alone, listed as hPG-immunogen
Description: (§1) FIGS. 6A-6C show immune response induced by hPG-fusion protein (FP) immunogen in different mouse models. […] The immunized Balb/c mice were inoculated with mouse CA cells at week 10 and sacrificed at week 14 and the tumors in the mice were weighed. Control mice received adjuvant alone. The weight of the tumors is indicated by an arrow against Ab titer of each mouse in mgs. Tumor weights from 3 of 6 animals are presented. […] FIGS. 6B and 6C show effect of vaccination with rhPG-FP immunogen on colon carcinogenesis in FVB/N mice. FVB/N mice were immunized with the hPG-fusion protein (FP) immunogen by 3-4 weekly injections and the PG-Ab titers were measured as described for the Balb/c mice. Once the mice developed significant PG-Ab titers, the mice were treated with azoxymethane (AOM) and the total number and size of tumors measured after 6 months of AOM treatment. The number of tumors (FIG. 6B) and the tumor burden (FIG. 6C) is presented herein. *=p<0.05 vs control values. Control mice were immunized with adjuvant alone.
(§2) Since autocrine and endocrine PG might be playing an important role in colon carcinogenesis, the possibility of using an rhPG fusion protein as an immunogen for treatment purposes was examined. Briefly, the rhPG fusion protein (FP) was used as an immunogen in Balb/C, FVB/N and FABP-PG mice. […]

[5] = system: colon tumors in FVB/N mice; experiment: AOM-induced colon carcinogenesis in immunized FVB/N mice; assay type: in vivo, mouse; conditions: 6 months after AOM, vs adjuvant alone
Description: as §1, §2

T1 sequence (Q07936 2-339 limits assumed): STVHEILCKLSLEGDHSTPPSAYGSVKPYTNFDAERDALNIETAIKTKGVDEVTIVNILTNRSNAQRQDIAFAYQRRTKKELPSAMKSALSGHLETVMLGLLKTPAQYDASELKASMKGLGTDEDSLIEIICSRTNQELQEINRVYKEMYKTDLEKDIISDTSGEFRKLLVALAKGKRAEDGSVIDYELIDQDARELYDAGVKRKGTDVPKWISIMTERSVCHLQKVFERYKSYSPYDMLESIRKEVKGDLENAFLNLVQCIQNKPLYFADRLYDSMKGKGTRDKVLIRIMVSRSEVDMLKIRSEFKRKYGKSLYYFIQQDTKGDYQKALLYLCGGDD

For “CCK: cholecystokinin (CCK-8), amidated peptide closely related to gastrin”, the “displacement of binding of radio-labeled rhPG / binding affinity for PG binding sites” value [1] was “negligible binding affinity”.

With “G17: 17 amino acid C-terminally amidated gastrin peptide” the “displacement of binding of radio-labeled rhPG / binding affinity for PG binding sites” value [1] was “negligible binding affinity”.

With “thioredoxin: recombinant bacterial thioredoxin carrier protein expressed in E. coli, used alone as immunogen [reference compound]” the anti-thioredoxin-antibody titers (thioredoxin) was “significant titers”, the “development of ACF in response to AOM” value [2] was “significantly enhanced” and the anti-PG-antibody titers (progastrin) was “not effective at all”.

B1: PG: full-length recombinant human progastrin PG1-80, 80 amino acids (SEQ ID NO:3), generated in E. coli (protein)
chain: SWKPRSQQPDAPLGTGANRDLELPWLEQQGPASHHRRQLGPQGPPHLVADPSKKQGPWLEEEEEAYGWMDFGRRSAEDEN
modifications: sequence of progastrin peptide expressed by recombinant expression vector
In the case of B1, the “displacement of binding of 125I-BH-CCK8 to CCK2R” value (CCK2R) is reported as “largely ineffective”, the “development of ACF in response to AOM” value [2] is reported as “significantly enhanced” and the “displacement of binding of radio-labeled rhPG / binding affinity for PG binding sites” value [1] is reported as “dose-dependently displaced”. For the same molecule, the “growth factor-like effects on cells” value [3] was “potent growth factor-like effects”, the anti-PG-antibody titers (progastrin) was “much less effective” and the anti-PG-antibody titers (progastrin; listed as PG peptide) was “much lower levels”.

B2: rhPG fusion protein (FP): full length human progastrin protein fused with carrier protein thioredoxin (from bacteria), expressed in E. coli, used as immunogen (protein)
chain: B1 chain
modifications: left off: large carriers; small tags and cut ends
notes: full length human progastrin protein fused with carrier protein thioredoxin (from bacteria), expressed in E. coli, used as immunogen
In the case of B2, the “CA tumor weights reduced compared to control mice” value [4] is reported as 15-30%, the “total number of tumors” value [5] is reported as “significantly (p<0.05) reduced” and the tumor burden/mouse [5] is reported as “significantly (p<0.05) reduced”. For the same molecule, the “development of ACF in response to AOM” value [2] was “complete attenuation”, the “titers of specific anti-hPG-Abs” value (progastrin; Balb/C, FVB/N and FABP-PG mice, within 4-8 weeks of vaccination) was “very high titers” and the “generation of PG antibodies, FP vs PG alone” value (progastrin; PS21 mice) was 2 fold. The anti-PG-antibody titers (progastrin) was 2 fold to much higher titers and the anti-PG-antibody titers (progastrin; listed as progastrin fusion protein) was “strong response”.
